{
  "source": "paper PMC3752698",
  "biological_target": "complement component C1q",
  "assay": "SPR",
  "data": [
    {"binder": "soluble SCARF1 protein (receptor) SELDPKGQHVCVASSPSAELQCCAGWRQKDQECTIPICEGPDACQKDEVCVKPGLCRCKPGFFGAHCSSRCPGQYWGPDCRESCPCHPHGQCEPATGACQCQADRWGARCEFPCACGPHGRCDPATGVCHCEPGWWSSTCRRPCQCNTAAARCEQATGACVCKPGWWGRRCSFRCNCHGSPCEQDSGRCACRPGWWGPECQQQCECVRGRCSAASGECTCPPGFRGARCELPCPAGSHGVQCAHSCGRCKHNEPCSPDTGSCESCEPGWNGTQCQQPCLPGTFGESCEQQCPHCRHGEACEPDTGHCQRCDPGWLGPRCEDPCPTGTFGEDCGSTCPTCVQGSCDTVTGDCVCSAGYWGPSCNASCPAGFHGNNCSVPCECPEGLCHPVSGSCQPGSGSRDT", "values": [
      {"measurement": "Kd", "value": 124, "unit": "nM"}
    ]}
  ]
}
